Assay: label from the status in PepcDB records

Sequence | protein production
MNPGKGPVLRFRVQLLVVGFALALGAAHQAQAAPGRALYKLPDLRVGLGDDNQGDTIPGPTRPNGSIHPSPDTLKASNAGYNPAEPISGFAQLHSQGSGGVTTYGTFLLSPQVGEPVFDEAAHLSPKADETLAADAYSVRLTRYDTKVEITSAHYAAIYRLTYPTTDQAQVVLDVTRKVGGLVASEQADVQLFPEQGRIVGHVKAKGYWNPALIDIWFVAEFDQNPTAWGVFDKAERRDGALSGRTGSDERLGAWLTFKTTPTKPLLVKIAVSFVSAEMAKALLDREIPDWDFERVRRDTQAAWNDRLGQVRVEGMTESQQRRFYSALYHASTHPRDRSLDQPAARLGRPNWDEHYTLWDTYRTLFPLISVLRPSLYTANVNSLIHTFDKFGAADTAIIGGQNYHVGQGGDEVDNVLGEALLRGAEGVNWRDAWRVARFNAFERRRPRYLESGYFAVGDRSPEPNNQRAKSGSSTLGFALNDFYAAQVAAKAGQTDEAKILTERSANWRKIWNPDATSDGFSGFLMPRYADGKFQDIDPKLGWDGKVHNNVGYYEGTAWIYSYGVLHDLPGLVEAMGGRVRFNERLNHALDAGLIDITNEPSFATPWLFHAIGRADLSSRWAGEVVKHFTADAYPGDEDAGAMSSNFVFNSLGLFPKLGSDLYYLHGPRHGRTVIQLENGKTLEILAAKAGASRPYIASASFNGKPLAGPYVSQAQLLGGGVLSLSMSDQPGQWIYEGAVLTVRADQPSLVDGKTSTGWRAASGQSVTFSLKAPACIAAYSVSVGPDQADPSHWTLQAYDGRAWVSVDQQSNVVFDHRHATRTFPLAPGRYARLRWVLDGGSEASVSEVELIAGASCAAPTSGAPLL | failed
MNPIVKAPTLNDLPAPPPGKTGWPWTEQNEALPEKMPDGSDWPKISIVTPSYNYGQFIEETIRSVLLQGYPNLEYIVVDGGSTDNTVTIIRKYEKYLKYWASEPDHGQTDAINKGYRYCSGDVFAWLNADDLYYDQSTLLKVINFYQKGYDLIVGECLNINADGTHFNQAITSTEKSDPTYFKKYLRYWSSGFLPQPAIFVKKEMADQCFPLSIELYYAMDFQFFLRVLNQEPKSVWIQEKLTRLRWHEDSKTMGTISRIDFHAIVPEPEVHKVALAEAENLPTWLEKIFFRIQAFDYLSLQPYINSLDNFHWLQITKTIVKRPTLAVWPLFWKIFFRSLLGEQIYKLLKRTIRTNLEHHHHHH | not failed
MNPLVIKLGGVLLDSEEALERLFTALVTYREKHERPLVIMHGGGCLVDELMKRLALPVVKKNGLRVTPADQIDIITGALAGTANKTLLAWAVKHQINAVGLCLADGNTVTVTLLDAELGHVGKAQPGSAALVQTLLAAGYMPIISSIGITVEGQLMNVNADQAATALAATLGADLILLSDVSGILDGKGQRIAEMTAQKAEQLIAQGIITDGMVVKVNAALDAARSLGRPVDIASWRHSEQLPALFNGVPIGTRISV | not failed
MNPTTLADVDTVIINANILTLDRDCPHAQAIAFAAGRILALGTTQELSPLAGRAATVVDARGSTLLPGFIDSHSHLMFGGVVAQALDLTEAACLSDLLDMVRSRAQSTPEGEWIRGYGVAAGRLKEKRYPTRQELDQVSGGRPVWLAEDSFHASLVNSKAFRMLEIPLSTPGVELAADGSPTGAFLNDAANVPARQRVFGFISDDEARQMLQHVTQLGATRGVTTVHAFEGSRMSADRDIELLMRFRHELPIHVVPYYETFDVERAMQLGVSGVGGCGRNCLDGMPNIQTAAMVDPYCCSEERGSLFQESIKLHNFVIAAFERGMQVGMHAMGDAAIEQLLATYERAIEETGRTDLRPRIEHFHVPSRDHVRRAADLGVGLAVQPIFTHLWGGRDGIFFERLGERRYKRIDTYREILDSGAIASCGADLPVHPADPLRWIQLLVDNQIDRDQSVSMTEAIRMCTYNGAWLGFQESETGTLAVSKAADAVMLGRDPHQCMPHEIAAIPILKTLGGKLVFESSRPLEHHHHHH | failed
MNQDLSQTFLAITRNSTDLEWLQGALAPLGQVVGADGSLDELLALVDVTFANLVFVGLDREHVVAQAALIEGALEAKPMLAIVALGDGMDNQLVLNAMRAGARDFVAYGSRSSEVAGLVRRLSKRLPAVTPNTQLGGLTVLYGAQGDGDGALLASHLALVVQKSGQQTLLLDLGLPRGDSLALLGLESSFHFGDALRHLRRLDATLIDSAFTSAEAGLRILAYASHDAPLEHTSAAELYMLLSALRQHFQHIVVNLVGQPDSEALRTFVSHCDKLLWCTDQNVLDCRRNLAVLNHWREKGMKLEHARLLVDRYLRTVAPDSETLGKTFGLEVIAVLAYSPEVRLNAKNQGVTLFELAPREALTQSLRTLGERLAKRSQGLPKPKAGWLNRIMGGRLEHHHHHH | failed
MNQEIAYLHPVKTARALVLVYLCFSVPIVAMGLFVAFIRYGDLPGITVFTALILNALIGFGLLWLGCKAYNWVAARFGGIEVHVRELTPEDRQ | failed
MNQFGPSALINLSNFSSIKPEPASTPPQGSMANSTAVVKIPGTPGAGGRLSPENNQVLTKKKLQDLVREVDPNEQLDEDVEEMLLQIADDFIESVVTAACQLARHRKSSTLEVKDVQLHLERQWNMWIPGFGSEEIRPYKKACTTEAHKQRMALIRKTTKK | failed
MNQHSFSLDDYYKSLINLDGMNDYYRYFIGLNGIIFPLLLIMSYPSVINLATKASFLIMLVGACCVLIDNWNRKSIAYRLYVELYENEYLANSDYKAGKVFVNLIFYVVSIYLISGVFGVL | failed
MNQKDVKLTVFSSDEKSFMVTATLVEKAGHAFLINSKFTQSDSKEIVEYLKKNNLSLDKIFIIHGDPDYYFGLESIKAVYPEAIAYATESTVEHIVHSVLGKLKVWKDALGENAPSNVVLPQVFKEKAIDFQGLTFELVGLEHYRTSLFNKELKVLIGGIDVFNEIHVFLADTSSKAAMEAWIENLKVLQALHADIIVPSHGSIEKSLNNQALTATMDYLRTAVQASEESGTSKDFVAKLEAAYPDYANKGVLELSAKVVTKELEHHHHHH | failed
MNQQPIKIAVFGLGGVGGYYGAMLALRAAATDGLLEVSWIARGAHLEAIRAAGGLRVVTPSRDFLARPTCVTDNPAEVGTVDYILFCTKDYDMERGVAEIRPMIGQNTKILPLLNGADIAERMRTYLPDTVVWKGCVYISARKSAPGLITLEADRELFYFGSGLPEQTDDEVRLAELLTAAGIRAYNPTDIDWYIMKKFMMISVTATATAYFDKPIGSILTEHEPELLSLLEEVAELFRAKYGQVPDDVVQQLLDKQRKMPPESTSSMHSDFLQGGSTEVETLTGYVVREAEALRVDLPMYKRMYRELVSRTAN | not failed
MNQRIETITALLDEKKAFDITHIDLSKTPYLVEDVIIATTLANKHALSLLDALKNTLKPLGEVFYQIDESNEEWIILDLGDLMIHLFTEECRKKFDLEGFLNAYKRGLPYQNA | failed
MNQTFIYYTVLFLIIFITISNLVENYRYSPKKIKNIIGIAFLLQIIRIVSLIALALVSDQRYISLFKYVGFLDIIYIPLMALIAFYILLRSDKINFQFFKFAPMVLTGFYIGVITIFKPFFKMSWEYGYVITTEKQILLKSIYILFLVAILSFLILFKKENHSDKKGIVFLGVTLAFIIIENSLELLGVRFLNGAIISELILCILGFYIVLTFKKNRISIRDCIKS | failed
MNRAFSRKKDKTWMHTPEALSKHFIPYNAKFLGSTEVEQPKGTEVVRDAVRKLKFARHIKKSEGQKIPKVELQISIYGVKILEPKTKEVQHNCQLHRISFCADDKTDKRIFTFICKDSESNKHLCYVFDSEKCVSIPDVVGWFVLFYKPGIVLLLALAKYLKMNNFL | failed
MNRARTNDRRRAGDGPRRSRSAGRPQNSGRRPAAAPQGGEFALPKTITPALPAVETFAELDLPARMLAALGDQGVTEPFPIQAATLPNSLAGRDVLGRGRTGSGKTLAFGLALLARTAGKRAEPRRPLALVLVPTRELAQQVTDALTPYARAVGLRSATVVGGMSIGRQAGALRSGAEVVVATPGRLKDLIDRGDCALGDVTITVLDEADQMTDMGFMPQVTALLDQVAADGQRMLFSATLDRNVDKLVRRYLTDPVVHSVDPSAGAVTTMEHHVLHVQDEDKQRATIEIAARDGRVIMFLDTKHRVDRLVKHLLKSGVRAAGLHGGKSQPQRTRTLAQFKDGQVTALVATNVAARGIHVDNLDLVVNVDPPGDHKDYLHRGGRTARAGESGSVVTLVTPDQRREMTRLMSLAGITPQVTPVRSGEAELARITGAQTPSGVPVVITAPVVERPRRAAAGAGSPSRGRRGRSAQGRSGGQGTGTQARTGAAQSRTAGQSRTAAQGRPTGESPRRRPRRQSTGGSTGSAA | failed

— a protein production outcome set (Wang et al. 2014)
